What was measured:
pro-factor D-His = pro-factor D-His (UniProt P00746)
ST-pro-factor D-His = ST-pro-factor D-His (UniProt P00746)

Chain of full length wild type recombinant human MASP-3 (chain): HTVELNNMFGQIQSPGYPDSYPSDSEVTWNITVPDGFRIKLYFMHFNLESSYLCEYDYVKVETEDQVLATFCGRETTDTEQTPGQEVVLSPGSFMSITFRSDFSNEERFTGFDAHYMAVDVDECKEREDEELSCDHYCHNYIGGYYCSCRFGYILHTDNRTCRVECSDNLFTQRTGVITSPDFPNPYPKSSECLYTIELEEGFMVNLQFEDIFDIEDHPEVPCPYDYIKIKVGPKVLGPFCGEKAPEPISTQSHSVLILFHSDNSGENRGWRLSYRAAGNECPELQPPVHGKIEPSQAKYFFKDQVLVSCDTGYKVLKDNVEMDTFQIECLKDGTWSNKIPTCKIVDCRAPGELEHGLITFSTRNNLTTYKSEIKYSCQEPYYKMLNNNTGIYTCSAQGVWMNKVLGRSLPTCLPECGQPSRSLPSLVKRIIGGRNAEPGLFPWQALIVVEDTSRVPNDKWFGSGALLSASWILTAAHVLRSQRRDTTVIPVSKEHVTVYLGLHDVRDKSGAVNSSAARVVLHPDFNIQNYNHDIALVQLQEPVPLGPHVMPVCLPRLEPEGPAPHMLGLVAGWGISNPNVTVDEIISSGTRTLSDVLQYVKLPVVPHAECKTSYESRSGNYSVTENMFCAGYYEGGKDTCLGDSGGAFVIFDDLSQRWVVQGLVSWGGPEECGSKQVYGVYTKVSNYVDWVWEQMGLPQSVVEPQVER

Substance	cleavage of pro-factor D (Western blot) (pro-factor D-His)	cleavage of pro-factor D (Western blot) (ST-pro-factor D-His)
catalytically-inactive full length MASP-3 (S679A)	The catalytically-inactive full length MASP-3 (S679A; lane 3) and MASP-1 (S646A; lane 3) failed to cleave either substrate	The catalytically-inactive full length MASP-3 (S679A; lane 3) and MASP-1 (S646A; lane 3) failed to cleave either substrate
full length wild type recombinant human MASP-3	Identical results were obtained with the pro-factor D-His6 polypeptide (not shown)	only full length MASP-3 (lane 2) and the MASP-1 CCP1-CCP2-SP) fragment (lane 5) cleaved ST-pro-factor D-His6

— patent publication US20130344073
